From US20060099689

What was measured:
[1] = system: TRX-EK-hIFNa [thioredoxin: P0AA25]
[2] = target: T1, TRX-EK-mIL15 (UniProt P48346)
T1 sequence: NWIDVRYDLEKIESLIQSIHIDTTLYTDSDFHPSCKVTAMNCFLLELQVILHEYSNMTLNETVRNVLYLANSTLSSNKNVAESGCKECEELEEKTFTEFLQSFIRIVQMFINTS

[3] = target: H-GST-T-mLIF (UniProt P09056)
[4] = target: H-GST-DEVD/mLIF (UniProt P09056)
[5] = target: H-GST-DEVD/S-mLIF (UniProt P09056)
[6] = system: GST-C-hIFNα

Sequence of TRX-EK-hIFNa [thioredoxin: P0AA25] (P0AA25 whole entry, looked up): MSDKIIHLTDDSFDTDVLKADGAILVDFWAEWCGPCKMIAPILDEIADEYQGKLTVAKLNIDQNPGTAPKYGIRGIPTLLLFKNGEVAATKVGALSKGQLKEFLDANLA

Enterokinase
processing of the fusion protein (gel, FIG. 3b) [1]: 16 h incubation with Enterokinase resulted in only a minor amount of processing of the fusion protein | cleavage of the fusion protein (gel, FIG. 3a) [2]: Cleavage with enterokinase required a long incubation time in order to process the molecule. In the end, the molecule was processed

Thrombin
time needed for processing [3]: up to 16 h were needed to process the H-GST-T-mLIF fusion protein with Thrombin

reverse Caspase-7
cleavage of the fusion protein (gel, FIG. 7) [4]: Both mLIF and hIFN alpha were cut efficiently using Either Caspase-3 or reverse Caspase-7, with either the recognition site DEVD/ or DEVD/S | cleavage of the fusion protein (gel, FIG. 7) [5]: Both mLIF and hIFN alpha were cut efficiently using Either Caspase-3 or reverse Caspase-7, with either the recognition site DEVD/ or DEVD/S | cleavage of the fusion protein (gel, FIG. 7) [6]: Both mLIF and hIFN alpha were cut efficiently using Either Caspase-3 or reverse Caspase-7, with either the recognition site DEVD/ or DEVD/S
